Changes are numbered by the printed parent chain. Numbers in names are those of the source.
T1: human NMI (N-myc Interacting protein), recombinant protein (human, UniProt Q13287 1-307, limits assumed)
T1 construct: Gene ID: 9111; also called hNMI; antigen
T1 sequence (looked up): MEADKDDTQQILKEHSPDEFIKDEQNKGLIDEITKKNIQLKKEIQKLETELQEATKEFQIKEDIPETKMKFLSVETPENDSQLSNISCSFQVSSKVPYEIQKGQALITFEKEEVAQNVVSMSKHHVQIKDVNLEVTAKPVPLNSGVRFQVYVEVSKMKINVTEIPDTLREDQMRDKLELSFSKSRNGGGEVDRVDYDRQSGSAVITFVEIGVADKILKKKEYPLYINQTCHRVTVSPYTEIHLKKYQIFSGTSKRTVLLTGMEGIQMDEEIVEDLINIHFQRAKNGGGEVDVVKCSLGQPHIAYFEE

B1: 98G10-H-1 (antibody, V domains shown)
VH: QEQLEESGGDLVKPEGSLTLTCTASGFSFSASYHICWVRQAPGKGLEWIACIYGGSSGSAYYASWAKGRFTISKTSSTTVTLQMTSLTAADTATYFCARAGYYNYGSAGDIYPSSFKLWGPGTLVTVSS
VL: DIVMTQTPASVEAAVGGTVTINCQASQSISTALAWYQQKPGQPPKLLIYTASKVASGVPSRFSGSGSGTQFTLTISDLECADAATYYCQNYYYSSSSITFGGGTEVVVK
notes: also called 98G10 W34H (VH)
B2: 98G10-H-2 (antibody, V domains shown)
VH: B1 VH with H34Y
VL: B1 VL
notes: also called 98G10 W34Y (VH)
B3: 98G10-H-14 (antibody, V domains shown)
VH: B1 VH with H34D, Y112S
VL: B1 VL
notes: also called 98G10 W34D, Y112S (VH)
B4: 98G10-H-10 (antibody, V domains shown)
VH: B1 VH with H34T, Y112R
VL: B1 VL
notes: also called 98G10 W34T, Y112R (VH)
B5: 98G10-H-8 (antibody, V domains shown)
VH: B1 VH with H34D, Y112R
VL: B1 VL
notes: also called 98G10 W34D, Y112R (VH)
B6: 98G10-H-7 (antibody, V domains shown)
VH: B1 VH with H34R, Y112R
VL: B1 VL
notes: also called 98G10 W34R, Y112R (VH)
B7: 98G10-L-2 (antibody, V domains shown)
VH: B1 VH with H34W
VL: B1 VL with Y93S
notes: also called 98G10 Y93S (VL)
B8: 98G10-H-5 (antibody, V domains shown)
VH: B1 VH with H34W, Y112E
VL: B1 VL
notes: also called 98G10 Y112E (VH)
B9: 98G10-H-3 (antibody, V domains shown)
VH: B1 VH with H34W, Y112R
VL: B1 VL
notes: also called 98G10 Y112R (VH)
B10: 98G10-H-4 (antibody, V domains shown)
VH: B1 VH with H34W, Y112S
VL: B1 VL
notes: also called 98G10 Y112S (VH)
B11: 98G10-H-9 (antibody, V domains shown)
VH: B1 VH with Y112L
VL: B1 VL
notes: also called 98G10 W34H, Y112L (VH)
B12: 98G10-L-1 (antibody, V domains shown)
VH: B1 VH with H34W
VL: B1 VL with Y93R
notes: also called 98G10 Y93R (VL)
B13: 98G10-H-6 (antibody, V domains shown)
VH: B1 VH with H34W, Y112Q
VL: B1 VL
notes: also called 98G10 Y112Q (VH)
B14: 98G10-H-13 (antibody, V domains shown)
VH: B1 VH with H34K, Y112S
VL: B1 VL
notes: also called 98G10 W34K, Y112S (VH)
B15: 98G10-H-12 (antibody, V domains shown)
VH: B1 VH with Y112S
VL: B1 VL
notes: also called 98G10 W34H, Y112S (VH)
B16: 98G10-H-11 (antibody, V domains shown)
VH: B1 VH with Y112R
VL: B1 VL
notes: also called 98G10 W34H, Y112R (VH)

biological target: T1, human NMI (N-myc Interacting protein), …; experiment: ELISA EC50 against parent 98G10

| Fold decrease in affinity [fold] | Binder |
| --- | --- |
| 0.77 | B1 |
| 16.4 | B2 |
| 48.1 | B3 |
| 60 | B4 |
| 51.3 | B5 |
| 50.4 | B6 |
| 1.71 | B7 |
| 59.7 | B8 |
| 0.9 | B9 |
| 2.65 | B10 |
| 10 | B11 |
| 2.81 | B12 |
| 2.97 | B13 |
| 54.1 | B14 |
| 2.61 | B15 |
| 0.84 | B16 |

biological target: T1, human NMI (N-myc Interacting protein), …; experiment: ELISA, binding to hNMI

| EC50 [µg/mL] | Binder |
| --- | --- |
| 0.024 | B1 |
| 0.507 | B2 |
| 1.49 | B3 |
| 1.86 | B4 |
| 1.59 | B5 |
| 1.56 | B6 |
| 0.053 | B7 |
| 1.85 | B8 |
| 0.028 | B9 |
| 0.082 | B10 |
| 0.311 | B11 |
| 0.087 | B12 |
| 0.092 | B13 |
| 1.68 | B14 |
| 0.081 | B15 |
| 0.026 | B16 |

Source: EP4682166A1 (Guangzhou Enmai Biotechnology Co., Ltd, dated 2026)
